Results published in PMC2910095 (Biochemistry, 2010).
Where “and” joins values, the source holds several entries; their conditions need not be identical. Equal values may be shown once.

Key:
[1] = target: recombinant refolded VacA p33 domain (Helicobacter pylori strain 60190); assay: SEC
[2] = target: purified recombinant VacA p55 domain (Helicobacter pylori strain 60190); assay: SEC
[3] = target: p33/p55 complex (86 kDa, monomeric complex) (Helicobacter pylori strain 60190); assay: negative-stain electron microscopy
[4] = target: the molecule itself; assay: negative-stain electron microscopy

## recombinant refolded VacA p33 domain (domain or fragment)
[1]
  stoichiometry N: 3
[2]
  stoichiometry N: 1

## p33/p55 complex (86 kDa, monomeric complex)
[3]
  stoichiometry N: 6 and 7 and 12

B1: p88 VacA purified from H. pylori broth culture supernatant (natural protein)
chain: AFFTTVIIPAIVGGIATGTAVGTVSGLLGWGLKQAEEANKTPDKPDKVWRIQAGKGFNEFPNKEYDLYKSLLSSKIDGGWDWGNAATHYWIKGGQWNKLEVDMKDAVGTYKLSGLRNFTGGDLDVNMQKATLRLGQFNGNSFTSYKDSADRTTRVDFNAKNILIDNFLEINNRVGSGAGRKASSTVLTLQASEGITSSKNAEISLYDGATLNLASNSVKLNGNVWMGRLQYVGAYLAPSYSTINTSKVTGEVNFNHLTVGDHNAAQAGIIASNKTHIGTLDLWQSAGLNIIAPPEGGYKDKPNNTPSQSGAKNDKQESSQNNSNTQVINPPNSTQKTEVQPTQVIDGPFAGGKDTVVNIDRINTKADGTIKVGGFKASLTTNAAHLNIGKGGVNLSNQASGRTLLVENLTGNITVDGPLRVNNQVGGYALAGSSANFEFKAGVDTKNGTATFNNDISLGRFVNLKVDAHTANFKGIDTGNGGFNTLDFSGVTNKVNINKLITASTNVAVKNFNINELIVKTNGVSVGEYTHFSEDIGSQSRINTVRLETGTRSIFSGGVKFKSGEKLVIDEFYYSPWNYFDARNIKNVEITRKFASSTPENPWGTSKLMFNNLTLGQNAVMDYSQFSNLTIQGDFINNQGTINYLVRGGKVATLNVGNAAAMMFNNDIDSATGFYKPLIKINSAQDLIKNTEHVLLKAKIIGYGNVSTGTNGISNVNLEEQFKERLALYNNNNRMDTCVVRNTDDIKACGMAIGNQSMVNNPDNYKYLIGKAWKNIGISKTANGSKISVYYLGNSTPTENGGNTTNLPTNTTNNARFASYA
[4]
  stoichiometry N: 6 and 7 and 12 to 14 (2×)
